Assay results: the supplement of paper PMC9112550, “Optimization of the antimicrobial peptide Bac7 by deep mutational scanning” (BMC Biology, 2022)

test system: Escherichia coli TOP10; assay: shrunken log2 fold change of peptide-encoding DNA abundance (4.5 h post-induction vs induction); higher = less antimicrobial activity (less host growth inhibition); conditions: time post-induction: 4.5 h; library: site-saturation at positions 5, 18, 19, 20
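Also: peptides expressed intracellularly from a pBAD plasmid library in pooled LB shake-flask culture, induced with 0.3% L-arabinose, DNA abundance read by NGS, three biological replicates, DESeq2 with apeglm shrinkage.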

Row | Sequence | shrunken log2 fold change
1 | RRIRFRPPRLPRPRPRPYCNPRP | -1.06
2 | RRIRFRPPRLPRPRPRPYDIPRP | -0.0365
3 | RRIRFRPPRLPRPRPRPYEYPRP | -0.488
4 | RRIRFRPPRLPRPRPRPYHGPRP | -0.114
5 | RRIRFRPPRLPRPRPRPYIGPRP | -1.25
6 | RRIRFRPPRLPRPRPRPYIQPRP | -0.841
7 | RRIRFRPPRLPRPRPRPYKHPRP | -0.911
8 | RRIRFRPPRLPRPRPRPYKRPRP | -0.827
9 | RRIRFRPPRLPRPRPRPYKYPRP | -0.907
10 | RRIRFRPPRLPRPRPRPYLRPRP | -0.138
11 | RRIRFRPPRLPRPRPRPYMVPRP | -0.953
12 | RRIRFRPPRLPRPRPRPYQAPRP | -0.303
13 | RRIRFRPPRLPRPRPRPYQWPRP | -0.655
14 | RRIRFRPPRLPRPRPRPYSIPRP | -0.186
15 | RRIRFRPPRLPRPRPRPYSYPRP | -0.268
16 | RRIRFRPPRLPRPRPRPYVAPRP | -0.62
17 | RRIRFRPPRLPRPRPRPYVPPRP | -0.238
18 | RRIRFRPPRLPRPRPRPYWCPRP | -0.399
19 | RRIRFRPPRLPRPRPRPYWSPRP | -0.428
20 | RRIRFRPPRLPRPRPRPYWVPRP | -0.683
21 | RRIRGRPPRLPRPRPRPAAMPRP | 1.54
22 | RRIRGRPPRLPRPRPRPAAYPRP | 0.929
23 | RRIRGRPPRLPRPRPRPACCPRP | 0.875
24 | RRIRGRPPRLPRPRPRPACKPRP | 0.923
25 | RRIRGRPPRLPRPRPRPACSPRP | 0.773

Row | Sequence | shrunken log2 fold change
26 | RRIRGRPPRLPRPRPRPADFPRP | 0.149
27 | RRIRGRPPRLPRPRPRPAGAPRP | 1.16
28 | RRIRGRPPRLPRPRPRPAHCPRP | 1.06
29 | RRIRGRPPRLPRPRPRPAHFPRP | 0.238
30 | RRIRGRPPRLPRPRPRPAHPPRP | 0.754
31 | RRIRGRPPRLPRPRPRPAIVPRP | 0.0899
32 | RRIRGRPPRLPRPRPRPAKAPRP | 0.233
33 | RRIRGRPPRLPRPRPRPANQPRP | 0.329
34 | RRIRGRPPRLPRPRPRPAPWPRP | 0.891
35 | RRIRGRPPRLPRPRPRPASIPRP | 0.371
36 | RRIRGRPPRLPRPRPRPATLPRP | 0.393
37 | RRIRGRPPRLPRPRPRPAVRPRP | 0.312
38 | RRIRGRPPRLPRPRPRPAWFPRP | 0.652
39 | RRIRGRPPRLPRPRPRPAWYPRP | 0.405
40 | RRIRGRPPRLPRPRPRPAYIPRP | -0.156
41 | RRIRGRPPRLPRPRPRPAYYPRP | -0.0149
42 | RRIRGRPPRLPRPRPRPCCHPRP | 0.345
43 | RRIRGRPPRLPRPRPRPCDKPRP | 0.297
44 | RRIRGRPPRLPRPRPRPCFFPRP | 0.392
45 | RRIRGRPPRLPRPRPRPCFGPRP | 0.262
46 | RRIRGRPPRLPRPRPRPCHGPRP | -0.355
47 | RRIRGRPPRLPRPRPRPCHVPRP | -0.172
48 | RRIRGRPPRLPRPRPRPCICPRP | 0.102
49 | RRIRGRPPRLPRPRPRPCIEPRP | 0.0449
50 | RRIRGRPPRLPRPRPRPCIHPRP | 0.00637

Row | Sequence | shrunken log2 fold change
51 | RRIRGRPPRLPRPRPRPCISPRP | -0.273
52 | RRIRGRPPRLPRPRPRPCIVPRP | 0.201
53 | RRIRGRPPRLPRPRPRPCKTPRP | 0.0121
54 | RRIRGRPPRLPRPRPRPCLQPRP | 0.264
55 | RRIRGRPPRLPRPRPRPCMAPRP | 0.703
56 | RRIRGRPPRLPRPRPRPCSNPRP | 0.275
57 | RRIRGRPPRLPRPRPRPCTLPRP | 0.321
58 | RRIRGRPPRLPRPRPRPCWFPRP | 0.584
59 | RRIRGRPPRLPRPRPRPCYCPRP | -0.164
60 | RRIRGRPPRLPRPRPRPDATPRP | 4.21
61 | RRIRGRPPRLPRPRPRPDAVPRP | 1.81
62 | RRIRGRPPRLPRPRPRPDCHPRP | 0.217
63 | RRIRGRPPRLPRPRPRPDCQPRP | 0.662
64 | RRIRGRPPRLPRPRPRPDCVPRP | 1.39
65 | RRIRGRPPRLPRPRPRPDESPRP | 0.0316
66 | RRIRGRPPRLPRPRPRPDEVPRP | 0.885
67 | RRIRGRPPRLPRPRPRPDFGPRP | 0.0741
68 | RRIRGRPPRLPRPRPRPDFIPRP | 0.157
69 | RRIRGRPPRLPRPRPRPDFRPRP | -0.043
70 | RRIRGRPPRLPRPRPRPDFWPRP | 0.593
71 | RRIRGRPPRLPRPRPRPDGFPRP | 0.171
72 | RRIRGRPPRLPRPRPRPDIEPRP | 0.735
73 | RRIRGRPPRLPRPRPRPDIGPRP | 0.663
74 | RRIRGRPPRLPRPRPRPDINPRP | 1.68
75 | RRIRGRPPRLPRPRPRPDKVPRP | 0.32

Row | Sequence | shrunken log2 fold change
76 | RRIRGRPPRLPRPRPRPDLIPRP | 0.87
77 | RRIRGRPPRLPRPRPRPDLPPRP | 0.921
78 | RRIRGRPPRLPRPRPRPDLVPRP | 0.529
79 | RRIRGRPPRLPRPRPRPDMDPRP | 0.00342
80 | RRIRGRPPRLPRPRPRPDMEPRP | 0.864
81 | RRIRGRPPRLPRPRPRPDNRPRP | -0.0893
82 | RRIRGRPPRLPRPRPRPDPPPRP | 1.14
83 | RRIRGRPPRLPRPRPRPDPYPRP | -0.0305
84 | RRIRGRPPRLPRPRPRPDRAPRP | 1.04
85 | RRIRGRPPRLPRPRPRPDSGPRP | 0.128
86 | RRIRGRPPRLPRPRPRPDSPPRP | 0.136
87 | RRIRGRPPRLPRPRPRPDSSPRP | 0.217
88 | RRIRGRPPRLPRPRPRPDTDPRP | 1.01
89 | RRIRGRPPRLPRPRPRPDTEPRP | -0.0629
90 | RRIRGRPPRLPRPRPRPDTMPRP | 0.00209
91 | RRIRGRPPRLPRPRPRPDVDPRP | 1.82
92 | RRIRGRPPRLPRPRPRPDVHPRP | 0.867
93 | RRIRGRPPRLPRPRPRPDWCPRP | 1.37
94 | RRIRGRPPRLPRPRPRPDWKPRP | 0.000125
95 | RRIRGRPPRLPRPRPRPDWQPRP | 0.336
96 | RRIRGRPPRLPRPRPRPDYDPRP | 0.157
97 | RRIRGRPPRLPRPRPRPEAFPRP | 1.86
98 | RRIRGRPPRLPRPRPRPEAGPRP | 1.21
99 | RRIRGRPPRLPRPRPRPECIPRP | 1.67
100 | RRIRGRPPRLPRPRPRPEDSPRP | 1.39

Row | Sequence | shrunken log2 fold change
101 | RRIRGRPPRLPRPRPRPEFFPRP | 0.891
102 | RRIRGRPPRLPRPRPRPEFKPRP | 0.741
103 | RRIRGRPPRLPRPRPRPEFNPRP | 0.669
104 | RRIRGRPPRLPRPRPRPEFSPRP | 1.15
105 | RRIRGRPPRLPRPRPRPEGCPRP | 1.65
106 | RRIRGRPPRLPRPRPRPEGMPRP | 1.34
107 | RRIRGRPPRLPRPRPRPEGRPRP | 1.39
108 | RRIRGRPPRLPRPRPRPEHAPRP | 2.78
109 | RRIRGRPPRLPRPRPRPEIPPRP | 0.196
110 | RRIRGRPPRLPRPRPRPEISPRP | 1.5
111 | RRIRGRPPRLPRPRPRPEKGPRP | 0.136
112 | RRIRGRPPRLPRPRPRPEKLPRP | 0.844
113 | RRIRGRPPRLPRPRPRPEKPPRP | 0.316
114 | RRIRGRPPRLPRPRPRPEKVPRP | 0.417
115 | RRIRGRPPRLPRPRPRPELVPRP | 1.58
116 | RRIRGRPPRLPRPRPRPEMQPRP | 1.41
117 | RRIRGRPPRLPRPRPRPEMTPRP | 3.26
118 | RRIRGRPPRLPRPRPRPENKPRP | 0.32
119 | RRIRGRPPRLPRPRPRPENTPRP | 0.841
120 | RRIRGRPPRLPRPRPRPEPWPRP | 0.655
121 | RRIRGRPPRLPRPRPRPEQMPRP | 0.152
122 | RRIRGRPPRLPRPRPRPESDPRP | 2.08
123 | RRIRGRPPRLPRPRPRPETGPRP | 0.81
124 | RRIRGRPPRLPRPRPRPETMPRP | 1.14
125 | RRIRGRPPRLPRPRPRPEWAPRP | 1.07

Row | Sequence | shrunken log2 fold change
126 | RRIRGRPPRLPRPRPRPEWNPRP | 1.71
127 | RRIRGRPPRLPRPRPRPEWRPRP | 1.15
128 | RRIRGRPPRLPRPRPRPEYAPRP | 1.26
129 | RRIRGRPPRLPRPRPRPEYVPRP | 0.244
130 | RRIRGRPPRLPRPRPRPEYWPRP | 1.03
131 | RRIRGRPPRLPRPRPRPFASPRP | 0.215
132 | RRIRGRPPRLPRPRPRPFCNPRP | 0.243
133 | RRIRGRPPRLPRPRPRPFCQPRP | 0.0716
134 | RRIRGRPPRLPRPRPRPFDCPRP | -0.208
135 | RRIRGRPPRLPRPRPRPFDHPRP | -0.0514
136 | RRIRGRPPRLPRPRPRPFEAPRP | 0.727
137 | RRIRGRPPRLPRPRPRPFFRPRP | 0.211
138 | RRIRGRPPRLPRPRPRPFGFPRP | 0.828
139 | RRIRGRPPRLPRPRPRPFGMPRP | 0.228
140 | RRIRGRPPRLPRPRPRPFGPPRP | 0.355
141 | RRIRGRPPRLPRPRPRPFHFPRP | 0.119
142 | RRIRGRPPRLPRPRPRPFHGPRP | 0.0325
143 | RRIRGRPPRLPRPRPRPFHRPRP | -0.118
144 | RRIRGRPPRLPRPRPRPFICPRP | 0.268
145 | RRIRGRPPRLPRPRPRPFIVPRP | -0.00433
146 | RRIRGRPPRLPRPRPRPFKYPRP | -0.221
147 | RRIRGRPPRLPRPRPRPFLMPRP | 0.364
148 | RRIRGRPPRLPRPRPRPFNSPRP | 0.0167
149 | RRIRGRPPRLPRPRPRPFPLPRP | 0.227
150 | RRIRGRPPRLPRPRPRPFPPPRP | 0.378
